Reference: PMC10229431, “Structures of the sulfite detoxifying F420-dependent enzyme from Methanococcales” (Nature Chemical Biology, 2023)
Where two headings read alike, the source gives them in different places. Blank lines part the entries; values can stand above or below the molecule they belong to.

What was measured:
[1] = molecular target: coenzyme F420-dependent sulfite reductase (Group I Fsr) from Methanothermococcus thermolithotrophicus (Methanothermococcus thermolithotrophicus (endogenous in strain DSM 2095)); assay: native gel or EMSA; anaerobic high-resolution clear-native PAGE (8-15% gradient) of cell extracts of cultures grown on 2 mM Na2S or 2 mM Na2SO3
[2] = molecular target: coenzyme F420-dependent sulfite reductase (Group I Fsr) from Methanothermococcus thermolithotrophicus (Methanothermococcus thermolithotrophicus (endogenous in strain DSM 2095)); assay: SEC; purified MtFsr on Superdex 200 Increase 10/300 GL, 0.4 ml/min, 25 mM Tris-HCl pH 7.6, 10% v/v glycerol, 2 mM DTT, anaerobic; standards conalbumin, aldolase, ferritin; apparent molecular weight
[3] = molecular target: coenzyme F420-dependent sulfite reductase (Group I Fsr) from Methanothermococcus thermolithotrophicus (Methanothermococcus thermolithotrophicus (endogenous in strain DSM 2095)); assay: crystal structure; MtFsr at 11 mg/ml cocrystallized with FAD and F420H2; 200 mM lithium sulfate, 100 mM Bis-Tris pH 5.5, 25% w/v PEG 3350; anaerobic, 20 °C; four homotetramers in the asymmetric unit
MtFsr = system: T1, MtFsr; assay: F420H2 oxidation followed at […] nm; format: biochemical, Methanothermococcus thermolithotrophicus; conditions: anaerobic, read-out: Apparent Km
T1 construct: gene fsr; full length, native purification from M. thermolithotrophicus grown on sulfite (assays) or sulfate (crystals); FAD, siroheme, six [4Fe-4S] clusters per subunit

MjFsr = molecular target: T2, MjFsr (Methanocaldococcus jannaschii, UniProt Q58280); assay: X-ray crystal structure, […] Å; format: binding; conditions: F420H2-oxidase domain
T2 construct: gene fsr; full length, native purification from M. jannaschii grown on sulfite; homotetramer, residues to 620
T2 sequence (Q58280 1-620): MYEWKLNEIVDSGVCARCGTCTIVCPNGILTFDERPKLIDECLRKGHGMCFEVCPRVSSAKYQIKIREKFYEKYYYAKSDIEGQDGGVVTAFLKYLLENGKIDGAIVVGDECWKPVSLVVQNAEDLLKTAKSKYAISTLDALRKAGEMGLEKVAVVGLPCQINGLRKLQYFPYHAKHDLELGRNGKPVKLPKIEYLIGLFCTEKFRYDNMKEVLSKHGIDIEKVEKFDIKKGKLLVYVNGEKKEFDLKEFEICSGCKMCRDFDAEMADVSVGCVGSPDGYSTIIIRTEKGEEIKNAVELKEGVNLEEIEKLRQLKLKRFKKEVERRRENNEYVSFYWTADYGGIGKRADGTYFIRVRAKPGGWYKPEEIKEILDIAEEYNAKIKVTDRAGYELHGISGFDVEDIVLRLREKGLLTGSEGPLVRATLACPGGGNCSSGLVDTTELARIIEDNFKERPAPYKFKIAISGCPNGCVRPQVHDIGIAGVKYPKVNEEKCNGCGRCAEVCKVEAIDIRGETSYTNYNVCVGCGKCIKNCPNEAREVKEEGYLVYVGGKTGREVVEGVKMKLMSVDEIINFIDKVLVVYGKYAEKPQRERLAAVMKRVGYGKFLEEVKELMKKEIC

[4] = molecular target: the molecule itself; assay: crystal structure; MjFsr at 6.1 mg/ml; 45% v/v 2-methyl-2,4-pentanediol, 100 mM Bis-Tris pH 5.5, 200 mM calcium chloride; anaerobic, 20 °C; two half homotetramers in the asymmetric unit

stoichiometry N [1]: 4
stoichiometry N [2]: 4
stoichiometry N [3]: 4
Molecule: coenzyme F420-dependent sulfite reductase (Group I Fsr) from Methanothermococcus thermolithotrophicus

Molecule: O=NO [NO2^−]
Km (MtFsr; 0-500 µM NaNO2, 50 µM F420H2, 200 mM KH2PO4 pH 7.0, 50 °C): 2.5 ± 0.2 µM

Km (MtFsr; 0-500 µM Na2SO3, 50 µM F420H2, 200 mM KH2PO4 pH 7.0, 50 °C): 15.6 ± 2 µM
Molecule: O=S(O)O [SO3^2−]

Molecule: Cc1cc2nc3c(=O)[nH]c(=O)nc-3n(C[C@H](O)[C@H](O)[C@H](O)COP(=O)(O)OP(=O)(O)OC[C@H]3O[C@@H](n4cnc5c(N)ncnc54)[C@H](O)[C@@H]3O)c2cc1C [FAD]
X-ray crystal structure, 2.30 Å (MjFsr): The active site of the F420H2-oxidase domain of Fsr contains a flavin adenine dinucleotide (FAD

B1: coenzyme F420-dependent sulfite reductase (Group I Fsr) from Methanocaldococcus jannaschii (enzyme, UniProt Q58280 1-620, looked up)
chain: MYEWKLNEIVDSGVCARCGTCTIVCPNGILTFDERPKLIDECLRKGHGMCFEVCPRVSSAKYQIKIREKFYEKYYYAKSDIEGQDGGVVTAFLKYLLENGKIDGAIVVGDECWKPVSLVVQNAEDLLKTAKSKYAISTLDALRKAGEMGLEKVAVVGLPCQINGLRKLQYFPYHAKHDLELGRNGKPVKLPKIEYLIGLFCTEKFRYDNMKEVLSKHGIDIEKVEKFDIKKGKLLVYVNGEKKEFDLKEFEICSGCKMCRDFDAEMADVSVGCVGSPDGYSTIIIRTEKGEEIKNAVELKEGVNLEEIEKLRQLKLKRFKKEVERRRENNEYVSFYWTADYGGIGKRADGTYFIRVRAKPGGWYKPEEIKEILDIAEEYNAKIKVTDRAGYELHGISGFDVEDIVLRLREKGLLTGSEGPLVRATLACPGGGNCSSGLVDTTELARIIEDNFKERPAPYKFKIAISGCPNGCVRPQVHDIGIAGVKYPKVNEEKCNGCGRCAEVCKVEAIDIRGETSYTNYNVCVGCGKCIKNCPNEAREVKEEGYLVYVGGKTGREVVEGVKMKLMSVDEIINFIDKVLVVYGKYAEKPQRERLAAVMKRVGYGKFLEEVKELMKKEIC
notes: Group I coenzyme F420-dependent sulfite reductase (Fsr) of Methanocaldococcus jannaschii DSM 2661; Native enzyme, no tag; Each chain carries FAD, six [4Fe-4S] clusters and a siroheme; also called MjFsr; source: purified natively from M. jannaschii DSM 2661 cells under anaerobic atmosphere (Q Sepharose, Source15Phe, Superdex 200)
stoichiometry N [4]: 4
